Data as given in PMC11203576 (International Journal of Molecular Sciences, 2024).

Biological target: T1, SARS-CoV-2 spike protein RBD, original (wild-type), sfGFP fusion (SARS-CoV-2, UniProt P0DTC2)
T1 construct: also called original RBD; original SARS-CoV-2 RBD
Experiment: SPR; Biacore T200; […] (0.01 M HEPES, 0.15 M NaCl, 3 mM EDTA, 0.05% surfactant P20, […]
Conditions: both partners purified

B1: Recombinant Microcystis viridis NIES-102 lectin (rMVL) (natural protein)
chain: MASYKVNIPAGPLWSNAEAQQVGPKIAAAHQGNFTGQWTTVVESAMSVVEVELQVENTGIHEFKTDVLAGPLWSNDEAQKLGPQIAASYGAEFTGQWRTIVEGVMSVIQIKYTF
notes: also called Microcystis viridis lectin
Work on B1 yielded a Kd of 2080 nM.
